Results: the Human Domainome abundance scans (Beltran et al. 2025)
± gives the uncertainty stated by the source.

B1: Segment polarity protein dishevelled homolog DVL-3, residues 2 to 81; numbered along this chain, Q92997 (parent)
chain: GETKIIYHLDGQETPYLVKLPLPAERVTLADFKGVLQRPSYKFFFKSMDDDFGVVKEEISDDNAKLPCFNGRVVSWLVSA

Variants of: B1
Assay: abundance fitness (aPCA) (normalised: wild type 0, dead -1); higher = more abundant; growth selection in yeast, the domain comes from the species named
Details: Homo sapiens
Work on GETKIIYHLNGQETPYLVKLPLPAERVTLADFKGVLQRPSYKFFFKSMDDDFGVVKEEISDDNAKLPCFNGRVVSWLVSA yielded an abundance fitness of -0.507 ± 0.14. In the case of GETKIIYHLIGQETPYLVKLPLPAERVTLADFKGVLQRPSYKFFFKSMDDDFGVVKEEISDDNAKLPCFNGRVVSWLVSA, the abundance fitness is reported as -0.831 ± 0.23. Work on GETKIIYHLFGQETPYLVKLPLPAERVTLADFKGVLQRPSYKFFFKSMDDDFGVVKEEISDDNAKLPCFNGRVVSWLVSA yielded an abundance fitness of -0.677 ± 0.2. Work on GETKIIYHLVGQETPYLVKLPLPAERVTLADFKGVLQRPSYKFFFKSMDDDFGVVKEEISDDNAKLPCFNGRVVSWLVSA yielded an abundance fitness of -0.726 ± 0.085. Work on GETKIIYHLSGQETPYLVKLPLPAERVTLADFKGVLQRPSYKFFFKSMDDDFGVVKEEISDDNAKLPCFNGRVVSWLVSA yielded an abundance fitness of -0.68 ± 0.086. For GETKIIYHLPGQETPYLVKLPLPAERVTLADFKGVLQRPSYKFFFKSMDDDFGVVKEEISDDNAKLPCFNGRVVSWLVSA, the abundance fitness was 0.002 ± 0.064. GETKIIYHLWGQETPYLVKLPLPAERVTLADFKGVLQRPSYKFFFKSMDDDFGVVKEEISDDNAKLPCFNGRVVSWLVSA showed an abundance fitness of -0.866 ± 0.12. For GETKIIYHLAGQETPYLVKLPLPAERVTLADFKGVLQRPSYKFFFKSMDDDFGVVKEEISDDNAKLPCFNGRVVSWLVSA, the abundance fitness was -0.513 ± 0.08. For GETKIIYHLMGQETPYLVKLPLPAERVTLADFKGVLQRPSYKFFFKSMDDDFGVVKEEISDDNAKLPCFNGRVVSWLVSA, the abundance fitness was -0.822 ± 0.15. GETKIIYHLLGQETPYLVKLPLPAERVTLADFKGVLQRPSYKFFFKSMDDDFGVVKEEISDDNAKLPCFNGRVVSWLVSA gave an abundance fitness of -0.848 ± 0.089. Work on GETKIIYHLGGQETPYLVKLPLPAERVTLADFKGVLQRPSYKFFFKSMDDDFGVVKEEISDDNAKLPCFNGRVVSWLVSA yielded an abundance fitness of -0.709 ± 0.077. Work on GETKIIYHLRGQETPYLVKLPLPAERVTLADFKGVLQRPSYKFFFKSMDDDFGVVKEEISDDNAKLPCFNGRVVSWLVSA yielded an abundance fitness of -0.696 ± 0.069. In the case of GETKIIYHLCGQETPYLVKLPLPAERVTLADFKGVLQRPSYKFFFKSMDDDFGVVKEEISDDNAKLPCFNGRVVSWLVSA, the abundance fitness is reported as -0.709 ± 0.16. In the case of GETKIIYHLEGQETPYLVKLPLPAERVTLADFKGVLQRPSYKFFFKSMDDDFGVVKEEISDDNAKLPCFNGRVVSWLVSA, the abundance fitness is reported as -0.016 ± 0.052. In the case of GETKIIYHLKGQETPYLVKLPLPAERVTLADFKGVLQRPSYKFFFKSMDDDFGVVKEEISDDNAKLPCFNGRVVSWLVSA, the abundance fitness is reported as -0.791 ± 0.13. In the case of GETKIIYHLTGQETPYLVKLPLPAERVTLADFKGVLQRPSYKFFFKSMDDDFGVVKEEISDDNAKLPCFNGRVVSWLVSA, the abundance fitness is reported as -0.471 ± 0.088. For GETKIIYHLDWQETPYLVKLPLPAERVTLADFKGVLQRPSYKFFFKSMDDDFGVVKEEISDDNAKLPCFNGRVVSWLVSA, the abundance fitness was -0.466 ± 0.086. Variant GETKIIYHLDYQETPYLVKLPLPAERVTLADFKGVLQRPSYKFFFKSMDDDFGVVKEEISDDNAKLPCFNGRVVSWLVSA has an abundance fitness of -0.391 ± 0.14. Work on GETKIIYHLDLQETPYLVKLPLPAERVTLADFKGVLQRPSYKFFFKSMDDDFGVVKEEISDDNAKLPCFNGRVVSWLVSA yielded an abundance fitness of -0.389 ± 0.068. Variant GETKIIYHLDDQETPYLVKLPLPAERVTLADFKGVLQRPSYKFFFKSMDDDFGVVKEEISDDNAKLPCFNGRVVSWLVSA has an abundance fitness of 0.192 ± 0.061. In the case of GETKIIYHLDVQETPYLVKLPLPAERVTLADFKGVLQRPSYKFFFKSMDDDFGVVKEEISDDNAKLPCFNGRVVSWLVSA, the abundance fitness is reported as -0.919 ± 0.096. GETKIIYHLDIQETPYLVKLPLPAERVTLADFKGVLQRPSYKFFFKSMDDDFGVVKEEISDDNAKLPCFNGRVVSWLVSA showed an abundance fitness of -1.06 ± 0.31. GETKIIYHLDMQETPYLVKLPLPAERVTLADFKGVLQRPSYKFFFKSMDDDFGVVKEEISDDNAKLPCFNGRVVSWLVSA showed an abundance fitness of -0.617 ± 0.12. For GETKIIYHLDCQETPYLVKLPLPAERVTLADFKGVLQRPSYKFFFKSMDDDFGVVKEEISDDNAKLPCFNGRVVSWLVSA, the abundance fitness was -0.333 ± 0.1. Work on GETKIIYHLDHQETPYLVKLPLPAERVTLADFKGVLQRPSYKFFFKSMDDDFGVVKEEISDDNAKLPCFNGRVVSWLVSA yielded an abundance fitness of -0.471 ± 0.19. Variant GETKIIYHLDFQETPYLVKLPLPAERVTLADFKGVLQRPSYKFFFKSMDDDFGVVKEEISDDNAKLPCFNGRVVSWLVSA has an abundance fitness of -0.586 ± 0.16. With GETKIIYHLDEQETPYLVKLPLPAERVTLADFKGVLQRPSYKFFFKSMDDDFGVVKEEISDDNAKLPCFNGRVVSWLVSA the abundance fitness was -0.112 ± 0.061. Work on GETKIIYHLDRQETPYLVKLPLPAERVTLADFKGVLQRPSYKFFFKSMDDDFGVVKEEISDDNAKLPCFNGRVVSWLVSA yielded an abundance fitness of -0.435 ± 0.059. GETKIIYHLDSQETPYLVKLPLPAERVTLADFKGVLQRPSYKFFFKSMDDDFGVVKEEISDDNAKLPCFNGRVVSWLVSA showed an abundance fitness of -0.262 ± 0.061. GETKIIYHLDPQETPYLVKLPLPAERVTLADFKGVLQRPSYKFFFKSMDDDFGVVKEEISDDNAKLPCFNGRVVSWLVSA gave an abundance fitness of -0.668 ± 0.12. For GETKIIYHLDKQETPYLVKLPLPAERVTLADFKGVLQRPSYKFFFKSMDDDFGVVKEEISDDNAKLPCFNGRVVSWLVSA, the abundance fitness was -0.384 ± 0.096. GETKIIYHLDTQETPYLVKLPLPAERVTLADFKGVLQRPSYKFFFKSMDDDFGVVKEEISDDNAKLPCFNGRVVSWLVSA gave an abundance fitness of -0.418 ± 0.091. GETKIIYHLDQQETPYLVKLPLPAERVTLADFKGVLQRPSYKFFFKSMDDDFGVVKEEISDDNAKLPCFNGRVVSWLVSA showed an abundance fitness of -0.322 ± 0.099. Work on GETKIIYHLDAQETPYLVKLPLPAERVTLADFKGVLQRPSYKFFFKSMDDDFGVVKEEISDDNAKLPCFNGRVVSWLVSA yielded an abundance fitness of -0.356 ± 0.064. Variant GETKIIYHLDNQETPYLVKLPLPAERVTLADFKGVLQRPSYKFFFKSMDDDFGVVKEEISDDNAKLPCFNGRVVSWLVSA has an abundance fitness of 0.095 ± 0.082.
